# Assay: yeast display, Sf9 membrane polyspecificity reagent, FACS + sequencing; frameworks hold sequencing errors
# Outline: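 Using colony PCR, genes from sorted yeast display clones were amplified, then sequenced on MiSeq at 2 × 250 and filtered by CDR length. The clones had been stained with 10% biotinylated, detergent-solubilized Sf9 membrane reagent for 1 hour at 4 °C and sorted by FACS into low and high (top ~1%) gates on anti-HA and streptavidin fluorescence. Polyreactivity labels come from the gate of origin.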
row,Sequence,polyreactivity (PSR sort gate)
1,QVQLVESCGGLVQEGGSLRLSCAASGFTFLRYAMGWYRQAPGKERELVAAISIPGGNTYYADSVKGRFTISRDNAKNTVYLQMNSLKPEDTAVYYCAARFGGGAARHGYWGQGTQVTVSS,high polyreactivity
2,QVQLVESGGGLVQAGGSLRLSCAASGSTFEYNAMGWYRQAPGKERELVASSTNYADSVKGRFTISRDNAKNTVYFQMNSLKPEDTAVYYCAREQGVNRNNDYWGQGTQVTVSS,low polyreactivity
3,QVQLVESGGGLVQAGGSLRLSCAASGRIFYWYVMGWYRQAPGKERELVASISSGGGTNYADSVKGRFTISRDNAKNTVYLQMNSLKPEDTAVYYCAARAYPYYWTGQKQSRFGYWGQGTQVTVSS,high polyreactivity
4,QVQLVESGGGLVQAGASLRLSCAASGFIFGKYAMGWYRQAPGKERELVAAISSSGGSTYYADSVKGRFTISRDTAKNTVYLQMNSLKPEDTAGYYCNAKVRGTNTAGVDYWGQGTQVTVSS,high polyreactivity
5,QVQLVESGGGLVQAGGSLRLSCAASGNIFFGNAMGWYRQAPGKERELVAVISKRGGSTYYADSVKGRFTISRDNAKNTVYLQMNSLKPEDTAVYYCAKVPTSRGNQLQQDGTKYDYWGQGTQVTVSS,high polyreactivity
6,QVQLVESGGGLVQAGGSLRLSCAASGRTFFIYAMGWYRQAPGKERELVAAIRWRGGSTYYADSVKGRFTISRDNAKNTVYLQMNSLKPEDTAVYYCAASTRQARYEDYYWGQGTQVTVSS,high polyreactivity
7,QVQLVESGGGLVQAGGSLRLSCAASGLTFPHYAMGWYRQAPGKEREFVAVISWSGGSTSYADSVKGRFTISRDNAKNTVYLQMNSLKPEDTAVYYCAAVYRTREWSYYYWGQGTQVTVSS,high polyreactivity
8,QVQLVDSGGGLVQAGGSLRLSCAASGSTFDVYAMGWYRQAPGKERELVAVINTSGTRTYYADSVKGRFTISRDNAKNTVYLQMNSLKPEDTEVYYCNAGGHLEMNYWGQGTQVTVSS,low polyreactivity
9,KVQLVESGGGLVQAGGSLRLSCAASGNIFIPYAMGWYRQAPGKEREFVAVISTRGGSTYYADSLKGRFTISRDNAKNTVYLQMNSLKPEYTAVYYCAAGALGPRIKGWWFRRSFFYWGQGTQVTVSS,high polyreactivity
10,QVQLVESGGGLVQAGGSLRLSCAASGRIFGPYAMGWYRQAPGKERELVASITRSGGRTYYADSVKGRFTISRDNAKNTVYLQMNSLKPEDSAVYYCAAGGFSKSYYYWGQGSQVTVSS,high polyreactivity
11,QVQLVESGGGLVQAGGSLRLSCAASGYIFYFNDMGWYRQAPGKERELVADITYSGDSTYYADSVKGRFTISRDNAKNTVYLQMNSLKPEDTAVYYCAARRGWWYRGDDYWGQGTQVNVSS,low polyreactivity
12,QVQLVESGGGLVQAGGSLRLSCAASGSIFVYNAMGWYRQAPGKERELVAAISQRGGSTYYADSVKGRFTISRDNAKNTVYLQMNSLKPEDTADYYCAAGPGDSGDDYWGQGTQVTVSS,low polyreactivity
13,QVQLVESGGGLVQAGGSLRLSCAASGFTFLYYAMGWYRPAPGKERELVAAISASSDRTYYADSVKGRFTISRDNAKNTVYLQMNSLKPEDTAVYYCAAYNSRVGGYRGYGYWGQGTQVTVSS,high polyreactivity
14,QVQLVESGGGLVQAGGSLRLSCAASGRTYGFNVMGWYRQAPGKERELVAAISWSGGSTYYADSVKGRFTISRDNEKNTVYLQMNSLKPEDTAVYYCNKRYVHRYGYWGQGTQVTVSS,low polyreactivity
15,QVQLVESGGGLVQAGGSLRLSCAASGRIFLYYAMGWYRQAPGKERELVAAITSDGSTNYADSVKGRFTISRDNAKNTVYLQMNSLKPEDTAVYYCARRIQTYHYHYDYWGQGTQVTVSS,low polyreactivity
16,QVQLVESGGGLVQPGGSLRLSCAASGRIFGWYAMGWYRQAPGKERELVAAITWSGTSTYYADSVKGRFTISRDNAKNTVYLQMNSLKPEDTAVYYCAADSLRGSAPTYYSTLEYWGQGTQVTVSS,low polyreactivity
17,QVQLVESGGGLVQAGGSLRLSCAASGSIFVSNAMGWYRQAPGKERELVAAISGGRSTYYADSVKGRFTISRDNAKNTVYLQMNSLKPEDTAVYYCAKKGGHRTYGYDSWGQGTQVTVSS,low polyreactivity
18,QVHLVESGGGLVEAAVSLRLSYAASGITVKSYAMGSYRQAPGKERELVADISSSGGTTYYADYVKGRFTISRDNAKNTVYLKMKSLKAEHTAVYYCNAKWGRYFSGGYGDEYDYWGQGTQVTVSS,high polyreactivity
19,QVQLVESGGGLVQAGASLRLSCAASGLTYSHYAMGWYRQAPGKERQLVAGISSRGGNTYYADSVKGRFTISRDNAKNTVYLQMNSLKPEDTAVYYCNAPKPKRAYDYWGQGTQVTVSS,high polyreactivity
20,QVQLVESGGGLVQAGGSLRLSCAASGSTFDTNAMGWYRQAPGKERELVAAITSGGNTYADSVKGRFTISRDNAKNTVYLQMNSLKPEDTAVYYCAAEDVYTGWYDYWGQGTQVTVSS,low polyreactivity
21,QVQLQESGGGLVQAGGSLRLSCAASGNISVTGFMGWYRKAPGKERELVASIGIGGTTYYADSVKGRFSISRDNAKNTVYLQMNSLKPEDTAVYYCAARYLYYAYSYWGQGTQVTVSS,low polyreactivity

row,Sequence,polyreactivity (PSR sort gate)
1,QVQLVESGGGLVQAGGSLRLSCAASGRTFGYYAMGWYRPAPGKERELVAAITSSSSTNYADSVKGRFTISRDNAKNTVYLQMNSLKPEDTAVYYCAAYGYYRSGYRALEGYWGQGTQVTVSS,high polyreactivity
2,QVQLVESGGGLVQAGGSLRLSCAASGLTFSDYAMGWYRQAPGKEREFVAALTRNGGSTRYADSVKGRFTISRDNAKNTVYLQMNSLKPEDTAVYYCNADGWGDRFWSNFRFDYWGQGTQVTVSS,low polyreactivity
3,QVQLVESGGGLVQAGGSLRLICAASGLTFYVNAMGWYRQAPGKERELVADISSGVSTNYADSVKGRFTISRDNAKNTVYLQMNSLKPEDTAVYYCNVERYKKLSRTHNYRRYNYWGQGTQVTVSS,high polyreactivity
4,QVQLVESGGGLVQAGGSLRLSCAASGLTFWPYVMGWYRQAPGKERELVAAIDDTGITYYADSVKGRFTISRDNEKNTVYLQMNTLKPEDTAVYYCATDWDYYFPWIYPSDAGPEDGYCGQGTQVTVSS,low polyreactivity
5,QVQLVESGGGLVQAGGSLRLSCAASGSTFQYYAMGWYSQAPGKERELVAAISYGGSRTYYADSVKGRFTISRDNAKNTVYLQMNSLKPEDTAVYYCAKEKYRALAPYYYWGQGTQVTVSS,high polyreactivity
6,QVQLVESGGGLVQAGGSLRLSCAASGSTFFKYDMGWYRQAPGKDRELVAVITWSGGTTFYADSVKGRFTFSRDNAKNTVYLQMNSLKPEDTAVYYGAADYYGYRYDYWGQGTQVTVSS,low polyreactivity
7,QVQLVESGGGLVQAGGSLRLSCAASGSTFYKYAMGWYRQAPGQVREVVASISSSGGSTYADSVKGRFTISRDNAKNTVYLQMNSLKPEDTAVYYCARVRWIVPWSGPTDDYWGQGTQVTVSS,low polyreactivity
8,QVQLVESGGGLVHAGGRLRLSCAASGRTFVSYVMGWYRQAPGKERELVAAISGNGGRTYYADSVKGRFTISRDNAKNTVYLQMNSLKPEDTAVYYCAAELFVSYFDVLMYYWGQGTQVTVSS,high polyreactivity
9,QVQLVESGGGLVQAGGSLRLSCAASGFIFSWYAMGWYRQAPGKERELVAAISYSGSNTYYADSVKGRFTISRDNAKNTVYLQMNSLKPEDTAVYYCAATLGSRWAIYDYWGQGTQVTVSS,high polyreactivity
10,QVHHVETGGGLDQAGGTLRLSCAASGRTFCTNAMGWSRQAPGKEWELVAAISSSGGSTYYADSVKGRFTISRDNAKNTVYLQMNSLKPEDTAVYYCAKGWHRGVGFCYWGQGTQVTVSS,high polyreactivity
11,QVQLEESGGGLVQAGGSLRLSCAASGSIFSGYTMGWYRQAPGKERELVAGISYRGGSTYYADSVKGRFTISRDNAKNTVYLQMNSLKPEDTAVYYCAARVWWRYEYWGQGTQVTVSS,high polyreactivity
12,QVQLVESGGGLVQEGGSLRLSCAASGRIFVGNAMGWYRQAPGKERELVASMTRGRRTNYADSVKGRFTISRDNAKNTVFFQMNSLKPVDTAVYYCNAPGVTRAYLVGYDYWGQGTQVTVSS,low polyreactivity
13,QVQLVESGGGLVQAGGSLRLSCAASGSIFAWYGMGWYRQAPGKERELVAAITSTGSTYYADSVKGRFTISRDNAKKTVYLQMNSLKPEDTAVYYCNAYSVYLWRPGDYWGQGTQVTVSS,low polyreactivity
14,QVQLVESGGGLVQAGGSLRLSCSASGSIFPHYAMGWYRQAPGKERELVAAISRSGTSTYYADSVKGRFTISRDNAKNTVYLQMNSLKPEDTAVYYCNAYQVYTRTYGYCGQGTQVTVSS,high polyreactivity
15,QVQLGESGGGLVQAGGSLRLSCAASGLTFPVYPMGWYRQAPGKEREFVTAITYNGGRTYYADSVKGRFTISRDNAKNTVYLQMNSLKPEDTAVYYCNAARSRGANLVPPYRLYYWGQGTQVTVSS,low polyreactivity
16,QVQLVESGGGLVQAGGSLRLCCAASGSTFYYYAMGWYRQAPGKVRELVASITTGGGSTYYADSVKGRFTISRDNAKNTVYLQMNSLKPEDTAVSYCAAALAYYYWWYDYWGQGTQVTASS,low polyreactivity
17,QVQLQVSGGGLVQAGGNLRLSCASSCTISESFGMGWNRQAPGKEREFVAGITMGGITNYADSVRGRFTISRDNAKNMYLQMNSLKPEDTAVYYCEVDDYRYINYEFWGQGTQVSVSS,high polyreactivity
18,QVHLVDSGGGLVQAGGSLRLSCAASGSTFDYNAMGWYRQAPGQESELVAAISWRGGGTYYADSVKGRFTISRDNAKTTVYLQMNSLKPEDTAVYYCAASAYKGTGAEFDYWRQGTQVTVSS,low polyreactivity
19,QVQLVESGGGLVQAGGSLRLSCAASGRIFGTNTMGWYRQAPGKERELVAGISSSGDSTYYADSVKGRFTISRDNAKNTVYLQMNSLKPEDTAVYYCAARKGEFWFPQGGYNYWGQGTQVTVSS,low polyreactivity
20,QVQLVESGGGLVQAGGSLRLSCAASGFIFPQNAMGWYRQAPGKERELVAAIRWSGGRTYYADSVKGRFTISRDNAKNTVYLQMNSLNPEDTAVYYCAADVRQRGIYGPGPHYYWGQGTQVTVSS,high polyreactivity
